In patent US20160168247A1 (published 2016):

Biological target: T1, HSC-F (cynomolgus monkey, UniProt Q95LI8 22-171; Q95LI7 23-181)
T1 chain: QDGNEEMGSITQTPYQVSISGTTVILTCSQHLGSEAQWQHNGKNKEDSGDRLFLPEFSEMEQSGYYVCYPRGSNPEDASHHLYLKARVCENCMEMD
Test: FACS binding; second row printed H4L1; graph legend indicates H4L3

B1: bsIgG1-huCD3-H4L1xHER2-LFLEDA (bispecific antibody, V domains shown)
VH 1: EVKLVESGGGLVKPGRSLRLSCAASGFTFNTYAMNWVRQAPGKGLEWVARIRSKYNNYATYYADSVKDRFTISRDDSKSILYLQMNSLKTEDTAMYYCVRHGNFGNSYVSWFAYWGQGTMVTVSS
VL 1: QAVVTQEPSFSVSPGGTVTLTCRSSTGAVTTSNYANWVQQTPGQAFRGLIGGTNKRAPGVPARFSGSILGNKAALTITGAQADDESDYYCALWYSNLWVFGGGTKLTVL
VH 2: QVQLVQSGAEVKKPGASVKVSCKASGYTFTNYGISWVRQAPGQGLEWMGWLSAYSGNTIYAQKLQGRVTMTTDTSTTTAYMELRSLRSDDTAVYYCARDRIVVRPDYFDYWGQGTLVTVSS
VL 2: EIVLTQSPATLSLSPGERATLSCRASQSVSSYLAWYQQKPGQAPRLLIYDASNRATGIPARFSGSGSGTDFTLTISSLEPEDFAVYYCQQRSNWPRTFGQGTKVEIK
EC50: 0.24 µg/mL
